The series is described as follows: self-splicing fitness, log relative to wild type (ln ratio); higher = more splicing; Tetrahymena group I intron in knt gene, E. coli kanamycin selection, DiMSum; sequences stand for … in CUCUCU…GGAGGGAAAAGUUAUCAGGCAUGCACCUGGUAGCUAGUCUUUAAACCAAUAGAUUGCAUCGGUUUAAAAGGCAAGACCGUCAAAUUGCGGGAAAGGGGUCAACAGCCGUUCAGUACCAAGUCUCAGGGGAAACUUUGAGAUGGCCUUGCAAAGGGUAUGGUAAUAAGCUGACGGACAUGGUCCUAACCACGCAGCCAAGUCCUAAGUCAACAGAUCUUCUGUUGAUAUGGAUGCAGUUCACAGACUAAAUGUCGGUCGGGGAAGAUGUAUUCUUCUCAUAAGAUAUAGUCGGACCUCUCCUUAAUGGGAGCUAGCGGAUGAAGUGAUGCAACACUGGAGCCGCUGGGAACUAAUUUGUAUGCGAAAGUAUAUUGAUUAGUUUUGGAGUACUCGUGGUCG
A digest of the protocol: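 A randomised library covering all eight P1ex-region intron nucleotides was built with the intron in the knt kanamycin-resistance gene on pET-22b(+) and held in E. coli BL21(DE3). Cells were grown overnight at 37°C or 30°C on LB agar, with or without 25 μg/mL kanamycin, plus 100 μg/mL carbenicillin, 50 μM IPTG and 0.2% rhamnose, and pooled colonies were amplicon-sequenced on an Illumina HiSeq 2500. DiMSum fitness is the error-weighted combination of wild-type-normalised replicate fold changes, kanamycin versus none.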

± gives the uncertainty stated by the source.

As to CUUGAGCAAUAUUACGCUAC, the “self-splicing fitness (ln)” value was -2.82 ± 0.49 (30 °C) and -2.02 ± 0.45 (37 °C).
For CUUGAGCAAUAUUACGCUUC, in that order: -2.91 ± 0.28 and -1.96 ± 0.45.
On to CUUGAGCAAUAUUACGCUUU, for which the “self-splicing fitness (ln)” value runs as follows: (30 °C) -2.88 ± 0.32; (37 °C) -3.35 ± 0.31.
The like results for CUUGAGCAAUAUUACGGAAC were, in that order, -2.25 ± 0.2 and -2.61 ± 0.33.
For CUUGAGCAAUAUUACGGACG, in that order: -0.339 ± 0.15 and 0.256 ± 0.26.
As for CUUGAGCAAUAUUACGGCCG, the “self-splicing fitness (ln)” value (37 °C) is -0.18 ± 0.27.
With CUUGAGCAAUAUUACGGCGU, the “self-splicing fitness (ln)” value reads like this: (30 °C) -3.95 ± 0.34; (37 °C) -2.76 ± 0.26.
Turning to CUUGAGCAAUAUUACGGGGG, the “self-splicing fitness (ln)” value was -2.81 ± 0.2 (30 °C) and -3.25 ± 0.39 (37 °C).
Regarding CUUGAGCAAUAUUACGGUUC, the “self-splicing fitness (ln)” value runs as follows: (30 °C) -3.56 ± 0.35; (37 °C) -2.51 ± 0.36.
In the case of CUUGAGCAAUAUUACGUGAA, the “self-splicing fitness (ln)” value (30 °C) was -3.07 ± 0.2 and the “self-splicing fitness (ln)” value (37 °C) was -2.36 ± 0.3.
The like results for CUUGAGCAAUAUUACGUGUC were, in that order, -2.02 ± 0.22 and -2.28 ± 0.26.
Turning to CUUUAGCAAUAUUACGAAUU, under “37 °C”, the “self-splicing fitness (ln)” value was -3.6 ± 0.46.
Consider CUUUAGCAAUAUUACGACAG, for which the “self-splicing fitness (ln)” value by setting is: (30 °C) -0.431 ± 0.071; (37 °C) -0.339 ± 0.097.
For CUUUAGCAAUAUUACGACGG, the “self-splicing fitness (ln)” value (30 °C) was -0.354 ± 0.13 and the “self-splicing fitness (ln)” value (37 °C) is -0.827 ± 0.16.
Regarding CUUUAGCAAUAUUACGAGAC, the “self-splicing fitness (ln)” value (30 °C) is -1.83 ± 0.36 and the “self-splicing fitness (ln)” value (37 °C) is -2.9 ± 0.4.
Take CUUUAGCAAUAUUACGAGGU: the “self-splicing fitness (ln)” value was -3.4 ± 0.23 (30 °C) and -2.3 ± 0.27 (37 °C).
On to CUUUAGCAAUAUUACGAUAG, for which the “self-splicing fitness (ln)” value reads like this: (30 °C) -0.991 ± 0.11; (37 °C) -0.782 ± 0.14.
Regarding CUUUAGCAAUAUUACGAUUG, the “self-splicing fitness (ln)” value was -0.504 ± 0.12 (30 °C) and 0.118 ± 0.17 (37 °C).
For CUUUAGCAAUAUUACGCAUU, in that order: -4.72 ± 0.31 and -3.51 ± 0.23.
As for CUUUAGCAAUAUUACGCCAG, the “self-splicing fitness (ln)” value is -1.65 ± 0.28 (30 °C) and -0.616 ± 0.28 (37 °C).
The like results for CUUUAGCAAUAUUACGCGGC were, in that order, -2.41 ± 0.35 and -0.897 ± 0.17.
On to CUUUAGCAAUAUUACGGAUU, for which, for the setting “37 °C”, the “self-splicing fitness (ln)” value is -1.57 ± 0.41.
Regarding CUUUAGCAAUAUUACGGGAC, the “self-splicing fitness (ln)” value was -3.25 ± 0.36 (30 °C) and -2.36 ± 0.42 (37 °C).
The like results for CUUUAGCAAUAUUACGGUAA were, in that order, -2.37 ± 0.23 and -2.12 ± 0.26.
CUUUAGCAAUAUUACGGUAG: the “self-splicing fitness (ln)” value is -1.81 ± 0.085 (30 °C) and -0.685 ± 0.11 (37 °C).
Take CUUUAGCAAUAUUACGUACC: under “37 °C”, the “self-splicing fitness (ln)” value is -1.68 ± 0.3.
Take CUUUAGCAAUAUUACGUAGG: the “self-splicing fitness (ln)” value (30 °C) is -1.05 ± 0.094 and the “self-splicing fitness (ln)” value (37 °C) is -0.65 ± 0.13.
The like results for CUUUAGCAAUAUUACGUAUC were, in that order, -3.56 ± 0.35 and -3.21 ± 0.4.
For CUUUAGCAAUAUUACGUAUG, in that order: -0.82 ± 0.11 and -0.4 ± 0.12.
For GAAAAGCAAUAUUACGAAAC, in that order: -2.88 ± 0.14 and -0.0376 ± 0.11.
Take GAAAAGCAAUAUUACGACGC: the “self-splicing fitness (ln)” value is, setting by setting: (30 °C) -0.132 ± 0.069; (37 °C) 0.493 ± 0.093.
The like results for GAAAAGCAAUAUUACGACUG were, in that order, -0.58 ± 0.094 and -0.857 ± 0.1.
On to GAAAAGCAAUAUUACGACUU, for which the “self-splicing fitness (ln)” value was -0.183 ± 0.063 (30 °C) and 0.52 ± 0.096 (37 °C).
Take GAAAAGCAAUAUUACGAGAC: the “self-splicing fitness (ln)” value (30 °C) is -2.59 ± 0.29 and the “self-splicing fitness (ln)” value (37 °C) is -0.985 ± 0.16.
In the case of GAAAAGCAAUAUUACGAUAG, the “self-splicing fitness (ln)” value is, setting by setting: (30 °C) -3.28 ± 0.15; (37 °C) -1.69 ± 0.15.
Turning to GAAAAGCAAUAUUACGAUCU, the “self-splicing fitness (ln)” value was -0.472 ± 0.075 (30 °C) and -0.478 ± 0.085 (37 °C).
The like results for GAAAAGCAAUAUUACGCAGC were, in that order, -2.9 ± 0.17 and -1.74 ± 0.19.
On to GAAAAGCAAUAUUACGCCUG, for which the “self-splicing fitness (ln)” value is -0.929 ± 0.081 (30 °C) and -0.273 ± 0.11 (37 °C).
GAAAAGCAAUAUUACGCGGC: the “self-splicing fitness (ln)” value (30 °C) was -3.33 ± 0.19 and the “self-splicing fitness (ln)” value (37 °C) is -3.07 ± 0.26.
In the case of GAAAAGCAAUAUUACGCGGU, the “self-splicing fitness (ln)” value was -3.4 ± 0.21 (30 °C) and -1.21 ± 0.16 (37 °C).
The like results for GAAAAGCAAUAUUACGCUCU were, in that order, -2.07 ± 0.13 and -1.27 ± 0.13.
The like results for GAAAAGCAAUAUUACGGAAG were, in that order, -3.88 ± 0.31 and -1.32 ± 0.16.
Consider GAAAAGCAAUAUUACGGACA, for which the “self-splicing fitness (ln)” value is, setting by setting: (30 °C) -0.576 ± 0.056; (37 °C) -0.269 ± 0.064.
For GAAAAGCAAUAUUACGGACG, in that order: -1.05 ± 0.092 and -0.401 ± 0.1.
Consider GAAAAGCAAUAUUACGGAGU, for which the “self-splicing fitness (ln)” value is, setting by setting: (30 °C) -3.18 ± 0.15; (37 °C) -2.11 ± 0.15.
For GAAAAGCAAUAUUACGGCAA, in that order: -0.142 ± 0.1 and -0.719 ± 0.11.
The like results for GAAAAGCAAUAUUACGGGUU were, in that order, -1.27 ± 0.095 and -1.22 ± 0.12.
The like results for GAAAAGCAAUAUUACGUCAC were, in that order, -2.2 ± 0.19 and -1.64 ± 0.31.
Consider GAAAAGCAAUAUUACGUCUC, for which the “self-splicing fitness (ln)” value was -1.3 ± 0.073 (30 °C) and -0.38 ± 0.092 (37 °C).
Consider GAAAAGCAAUAUUACGUGUG, for which the “self-splicing fitness (ln)” value (30 °C) is -2.31 ± 0.062 and the “self-splicing fitness (ln)” value (37 °C) is -1.06 ± 0.072.
For GAAAAGCAAUAUUACGUUUU, in that order: -3.8 ± 0.18 and -2.4 ± 0.13.
Regarding GAACAGCAAUAUUACGAACC, the “self-splicing fitness (ln)” value runs as follows: (30 °C) -1.6 ± 0.12; (37 °C) -0.809 ± 0.13.
Consider GAACAGCAAUAUUACGACAU, for which the “self-splicing fitness (ln)” value is -0.575 ± 0.011 (30 °C) and -0.153 ± 0.032 (37 °C).
The like results for GAACAGCAAUAUUACGACGA were, in that order, -0.494 ± 0.085 and 0.265 ± 0.097.
For the sequence GAACAGCAAUAUUACGACUG, the “self-splicing fitness (ln)” value reads like this: (30 °C) -1.45 ± 0.085; (37 °C) 0.155 ± 0.1.
The like results for GAACAGCAAUAUUACGAGAU were, in that order, -3.55 ± 0.12 and -1.4 ± 0.09.
As to GAACAGCAAUAUUACGAGUA, the “self-splicing fitness (ln)” value by setting is: (30 °C) -2.87 ± 0.12; (37 °C) -1.98 ± 0.1.
The like results for GAACAGCAAUAUUACGCAUC were, in that order, -2.79 ± 0.095 and -2.01 ± 0.12.
The like results for GAACAGCAAUAUUACGGAGC were, in that order, -1.93 ± 0.057 and -1.13 ± 0.083.
In the case of GAACAGCAAUAUUACGGCGU, the “self-splicing fitness (ln)” value is -0.302 ± 0.083 (30 °C) and 0.212 ± 0.097 (37 °C).
As for GAACAGCAAUAUUACGGGAC, the “self-splicing fitness (ln)” value (30 °C) is -2.66 ± 0.085 and the “self-splicing fitness (ln)” value (37 °C) is -1.36 ± 0.085.
The like results for GAACAGCAAUAUUACGGGCA were, in that order, -0.822 ± 0.096 and -0.223 ± 0.093.
For GAACAGCAAUAUUACGGGUA, in that order: -1.54 ± 0.07 and -1.32 ± 0.076.
With GAACAGCAAUAUUACGUAGU, the “self-splicing fitness (ln)” value is, setting by setting: (30 °C) -1.55 ± 0.06; (37 °C) -0.106 ± 0.075.
The like results for GAACAGCAAUAUUACGUCCG were, in that order, -1.5 ± 0.13 and -0.784 ± 0.17.
For GAACAGCAAUAUUACGUCGG, in that order: -2.64 ± 0.16 and -1.85 ± 0.28.
For GAACAGCAAUAUUACGUCGU, in that order: -1.5 ± 0.065 and -0.479 ± 0.078.
In the case of GAACAGCAAUAUUACGUUGC, the “self-splicing fitness (ln)” value (30 °C) was -3.47 ± 0.19 and the “self-splicing fitness (ln)” value (37 °C) is -3.4 ± 0.29.
For GAAGAGCAAUAUUACGAAAU, in that order: -3.79 ± 0.24 and -1.95 ± 0.23.
For GAAGAGCAAUAUUACGACUA, in that order: -2.15 ± 0.29 and -1.92 ± 0.24.
In the case of GAAGAGCAAUAUUACGAUCC, for the setting “30 °C”, the “self-splicing fitness (ln)” value is -1.84 ± 0.39.
As to GAAGAGCAAUAUUACGCAGG, the “self-splicing fitness (ln)” value (30 °C) is -1.89 ± 0.32.
On to GAAGAGCAAUAUUACGCCAC, for which the “self-splicing fitness (ln)” value runs as follows: (30 °C) -3.28 ± 0.41; (37 °C) -2.48 ± 0.41.
For GAAGAGCAAUAUUACGCGAG, in that order: -2.82 ± 0.17 and -2.16 ± 0.23.
The like results for GAAGAGCAAUAUUACGCGGU were, in that order, -2.63 ± 0.14 and -2.55 ± 0.25.
Consider GAAGAGCAAUAUUACGCGUC, for which the “self-splicing fitness (ln)” value by setting is: (30 °C) -2.98 ± 0.42; (37 °C) -2.5 ± 0.48.
GAAGAGCAAUAUUACGGACA: the “self-splicing fitness (ln)” value runs as follows: (30 °C) -1.14 ± 0.24; (37 °C) 0.342 ± 0.24.

These data come from the supplement of paper PMC7877785.
